B1: Relaxin-3 (Homo sapiens), Q8WXF3 (parent)
chain: MARYMLLLLLAVWVLTGELWPGAEARAAPYGVRLCGREFIRAVIFTCGGSRWRRSDILAHEAMGDTFPDADADEDSLAGELDEAMGSSEWLALTKSPQAFYRGRPSWQGTPGVLRGSRDVLAGLSSSCCKWGCSKSEISSLC

Variants of: B1
Conditions: with rl3r2_human RXFP4, Q8TDU9
Sequence of rl3r2_human RXFP4, Q8TDU9 (Q8TDU9 whole entry): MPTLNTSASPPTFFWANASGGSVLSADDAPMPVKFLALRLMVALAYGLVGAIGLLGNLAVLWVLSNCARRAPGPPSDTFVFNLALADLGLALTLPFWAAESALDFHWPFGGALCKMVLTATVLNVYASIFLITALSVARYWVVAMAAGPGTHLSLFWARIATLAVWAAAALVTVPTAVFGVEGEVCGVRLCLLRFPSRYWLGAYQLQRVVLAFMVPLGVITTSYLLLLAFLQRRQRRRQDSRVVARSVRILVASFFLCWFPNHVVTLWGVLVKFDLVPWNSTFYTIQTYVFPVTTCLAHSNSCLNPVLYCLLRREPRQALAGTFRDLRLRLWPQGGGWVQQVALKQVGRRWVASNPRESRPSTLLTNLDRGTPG

Variant | effect of a mutation on the interaction
MARYMLLLLLAVWVLTGELWPGAEARAAPYGVRLCGEEFIRAVIFTCGGSRWRRSDILAHEAMGDTFPDADADEDSLAGELDEAMGSSEWLALTKSPQAFYRGRPSWQGTPGVLRGSRDVLAGLSSSCCKWGCSKSEISSLC | decreasing interaction

Variants of: B1
Conditions: with rl3r2_human RXFP4, Q8TDU9
Remark: another data set of the same source

Variant | effect of a mutation on the interaction
MARYMLLLLLAVWVLTGELWPGAEARAAPYGVRLCGEEFIRAVIFTCGGSRWRRSDILAHEAMGDTFPDADADEDSLAGELDEAMGSSEWLALTKSPQAFYRGRPSWQGTPGVLRGSRDVLAGLSSSCCKWGCSKSEISSLC | increasing interaction

Variants of: B1
Conditions: with rl3r2_human RXFP4, Q8TDU9
Remark: another data set of the same source

Variant | effect of a mutation on the interaction
MARYMLLLLLAVWVLTGELWPGAEARAAPYGVRLCGREFIEAVIFTCGGSRWRRSDILAHEAMGDTFPDADADEDSLAGELDEAMGSSEWLALTKSPQAFYRGRPSWQGTPGVLRGSRDVLAGLSSSCCKWGCSKSEISSLC | decreasing interaction

Variants of: B1
Conditions: with rl3r2_human RXFP4, Q8TDU9
Remark: another data set of the same source

Variant | effect of a mutation on the interaction
MARYMLLLLLAVWVLTGELWPGAEARAAPYGVRLCGREFIEAVIFTCGGSRWRRSDILAHEAMGDTFPDADADEDSLAGELDEAMGSSEWLALTKSPQAFYRGRPSWQGTPGVLRGSRDVLAGLSSSCCKWGCSKSEISSLC | increasing interaction

Variants of: B1
Conditions: with rl3r2_human RXFP4, Q8TDU9
Remark: another data set of the same source

Variant | effect of a mutation on the interaction
MARYMLLLLLAVWVLTGELWPGAEARAAPYGVRLCGREFIRAVIFTCGGSEWRRSDILAHEAMGDTFPDADADEDSLAGELDEAMGSSEWLALTKSPQAFYRGRPSWQGTPGVLRGSRDVLAGLSSSCCKWGCSKSEISSLC | decreasing interaction

Variants of: B1
Conditions: with rl3r2_human RXFP4, Q8TDU9
Remark: another data set of the same source

Variant | effect of a mutation on the interaction
MARYMLLLLLAVWVLTGELWPGAEARAAPYGVRLCGREFIRAVIFTCGGSEWRRSDILAHEAMGDTFPDADADEDSLAGELDEAMGSSEWLALTKSPQAFYRGRPSWQGTPGVLRGSRDVLAGLSSSCCKWGCSKSEISSLC | increasing interaction
